Measured values published in PMC10117100.

How the values were obtained:
[1] = molecular target: Gluc1-ΔN(1 to 433) (human); experiment: split reporter (BiFC, NanoBiT); Gaussia princeps protein complementation assay (GPCA): Gluc1 and Gluc2 N-terminal fusions co-transfected in HEK293T, luminescence of lysates after 48 h as normalized luminescence ratio (NLR); pairs count as interacting if NLR is above 5
Gluc1-ΔNp73α FL (human) = Gluc1-ΔNp73α FL (human) (UniProt O15350); experiment: as above
Gluc1-ΔNp73α FL (human), sequence (O15350 other isoform, or with tags, fused parts or gaps mutant): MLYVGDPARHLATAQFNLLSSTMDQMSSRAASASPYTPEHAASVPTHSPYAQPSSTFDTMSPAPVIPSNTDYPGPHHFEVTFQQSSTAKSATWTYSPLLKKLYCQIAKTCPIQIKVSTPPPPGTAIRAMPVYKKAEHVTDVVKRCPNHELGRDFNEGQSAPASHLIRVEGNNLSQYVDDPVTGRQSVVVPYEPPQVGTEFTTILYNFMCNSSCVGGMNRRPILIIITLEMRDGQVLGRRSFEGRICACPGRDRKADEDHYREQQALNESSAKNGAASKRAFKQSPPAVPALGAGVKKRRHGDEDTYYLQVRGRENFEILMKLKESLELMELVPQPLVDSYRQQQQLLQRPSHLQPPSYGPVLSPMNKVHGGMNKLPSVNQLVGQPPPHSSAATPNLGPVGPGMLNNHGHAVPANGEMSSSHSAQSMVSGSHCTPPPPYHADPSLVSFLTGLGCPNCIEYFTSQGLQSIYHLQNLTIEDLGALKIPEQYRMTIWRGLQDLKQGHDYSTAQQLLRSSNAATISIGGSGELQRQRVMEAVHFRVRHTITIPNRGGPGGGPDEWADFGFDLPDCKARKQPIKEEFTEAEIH

Gluc2-E2F4 FL, sequence (Q16254 whole entry): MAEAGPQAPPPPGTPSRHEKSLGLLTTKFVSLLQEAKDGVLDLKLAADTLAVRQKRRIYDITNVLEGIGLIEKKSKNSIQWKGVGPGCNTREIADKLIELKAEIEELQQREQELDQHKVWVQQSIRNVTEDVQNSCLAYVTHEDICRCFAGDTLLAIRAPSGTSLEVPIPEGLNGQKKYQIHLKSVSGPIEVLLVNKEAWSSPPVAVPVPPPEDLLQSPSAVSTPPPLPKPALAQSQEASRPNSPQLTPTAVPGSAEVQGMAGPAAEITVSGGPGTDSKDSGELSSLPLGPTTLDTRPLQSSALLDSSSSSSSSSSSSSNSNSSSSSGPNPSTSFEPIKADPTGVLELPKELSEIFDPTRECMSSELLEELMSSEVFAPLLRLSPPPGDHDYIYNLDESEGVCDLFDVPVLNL
Gluc1-ΔN(1 to 433) (human), sequence (O15350 other isoform, or with tags, fused parts or gaps mutant): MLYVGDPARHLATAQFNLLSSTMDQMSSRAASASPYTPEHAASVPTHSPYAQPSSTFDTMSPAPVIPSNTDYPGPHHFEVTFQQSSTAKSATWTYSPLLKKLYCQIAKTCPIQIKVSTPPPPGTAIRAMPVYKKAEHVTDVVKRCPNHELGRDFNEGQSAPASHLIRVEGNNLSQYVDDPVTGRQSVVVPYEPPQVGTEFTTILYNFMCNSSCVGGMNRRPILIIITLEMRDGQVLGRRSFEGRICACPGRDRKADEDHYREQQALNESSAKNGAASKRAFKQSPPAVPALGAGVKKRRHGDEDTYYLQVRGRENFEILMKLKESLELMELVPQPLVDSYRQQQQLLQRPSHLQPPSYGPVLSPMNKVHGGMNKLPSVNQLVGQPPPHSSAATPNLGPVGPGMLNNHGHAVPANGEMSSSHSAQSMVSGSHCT
Gluc2-E2F(1 to 336), sequence (Q16254 1-336): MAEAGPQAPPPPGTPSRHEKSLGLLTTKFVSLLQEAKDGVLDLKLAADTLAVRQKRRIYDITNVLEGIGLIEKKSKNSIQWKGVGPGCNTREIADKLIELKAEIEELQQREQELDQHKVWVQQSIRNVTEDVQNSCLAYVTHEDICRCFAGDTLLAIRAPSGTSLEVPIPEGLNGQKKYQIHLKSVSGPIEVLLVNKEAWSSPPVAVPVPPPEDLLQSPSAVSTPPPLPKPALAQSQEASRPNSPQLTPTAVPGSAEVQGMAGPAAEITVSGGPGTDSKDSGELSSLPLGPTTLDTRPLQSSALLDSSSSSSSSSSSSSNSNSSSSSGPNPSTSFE

normalized luminescence ratio (NLR) [1]	NLR normalized to the ΔNp73α-E2F4 FL interaction (Gluc1-ΔNp73α FL (human))	Substance
> 20	–	Gluc2-E2F4 FL (from UniProt Q16254 1-413) (natural protein)
–	60%	Gluc2-E2F(1 to 336) (from UniProt Q16254 1-336) (domain or fragment)
